How the values were obtained:
C. difficile R20291 [1] = test: Lytic activity of LHD after incubation with mouse intestinal contents; type: in vitro ADME; conditions: 37° C., 1 hr
Experimental: Protein LHD was incubated with mouse intestinal contents at 37° C. for 15, 30 or 60 minutes, then optical drop assays were performed on C. difficile R20291 to test the lytic activity of LHD at a concentration of 100 μg/ml. Experiments were repeated 3 times, and representative data were shown.
To appreciate the stability and activity of LHD in the mouse intestine, […] was incuated with freshly prepaerd mouse intestinal contents for 15 min, 30 min and 60 min, and retrived by centrifugation. Lytic activities of LHD treated with intestinal contents were determined on strain C. difficile R20291 as described above.

C. difficile R20291 [2] = test: Optical drop assay, lytic activity on C. difficile R20291; type: cell-based, Clostridium difficile; conditions: strain R20291, 200 μg/ml
Experimental: The lytic activity of proteins LHD and LCD against C. difficile strains was determined as previously described (Wang, Euler et al. 2015). Briefly, C. difficile strains were cultured in an anaerobic chamber to mid-log phase, and the bacterial pellets were harvested by centrifugation at 3000×g for 5 min. Pellets were washed twice and re-suspended in sterilized ddH2O, and resuspensions were not buffered. Prior to tests, bacterial optical density at 600 nm (OD600) was adjusted to approximately 0.8-1.0. Proteins LHD and LCD were added into the cell re-suspension with the final concentration of 200 μg/ml. The drop in OD600 at 37° C. was measured every 10 minutes for 60 min˜90 min. Bacterial re-suspension with sterilized water was also set as a control. Three repeats were included in each test.

C. difficile R20291 [3] = test: Minimum inhibitory concentration (MIC) on strain R20291; type: cell-based, Clostridium difficile; conditions: strain R20291, BHIS, 37° C. for 18 h
Experimental: The minimum inhibitory concentrations (MICs) of LHD and LCD were determined using the protocol of Wiegand, et al. (Wiegand, Hilpert et al. 2008) with some modifications, as described previously (Gilmer, Schmitz et al. 2017). In brief, strain R20291 was grown in BHIS and adjusted to ˜5×10^5 cells/ml in BHIS, and distributed into the wells of a 96-well round bottom polystyrene microtiter plate. In the wells of each row, either sterile-filtered lysin or control vehicle (metronidazole, vancomycin and fidaxomicin) was added with a final concertation varied from 200 μg/ml to 0.19 μg/ml (2-fold dilution) (Wiegand, Hilpert et al. 2008). The plates were incubated at 37° C. for 18 h. The MIC was “the lowest or minimum concentration of lysin or control vehicle that prevented the formation of a cell pellet (a measure of growth) on the bottom of the wells” (Gilmer, Schmitz et al. 2017). The MICs were also confirmed by measuring the OD600 values using a Bio-Rad plate reader (Bio-Rad, Hercules, CA).

B1: LHD: Fusion of phage phiC2 lysin catalytic domain (LCD, 179aa), (GGGGS)3 linker and human alpha-defensin 5; SEQ ID NO:1 (protein)
chain: MKICITVGHSILKSGACTSADGVVNEYQYNKSLAPVLADTFRKEGHKVDVIICPEKQFKTKNEEKSYKIPRVNSGGYDLLIELHLNASNGQGKGSEVLYYSNKGLEYATRICDKLGTVFKNRGAKLDKRLYILNSSKPTAVLIESFFCDNKEDYDKAKKLGHEGIAKLIVEGVLNKNINGGGGSGGGGSGGGGSATCYCRTGRCATRESLSGVCEISGRLYRLCCR
C. difficile R20291 [1]
  lytic activity after treatment with intestinal contents: did not affect lytic activity
C. difficile R20291 [2]
  lytic activity (drop in OD600): potent lytic activities
C. difficile R20291 [3]
  MIC: 0.78 µg/mL

— patent US12630596B2, “Engineered lysin-human defensin protein” (priority 2018, dated 2026)
